We go through 4 molecules from patent US20060121045A1 (published 2006).

In assay [1] the target is T1, anthrax protective antigen (PA) (Bacillus anthracis, UniProt P13423 30-764). In words: SPR. On the technique in general: SPR reads the build-up and loss of mass on a sensor chip optically.
Assay [2] deals with T1, anthrax protective antigen (PA). In words: not stated (presumably SPR).
Assay [3] shares this target. The experiment in a line: SPR (Biacore 3000), PA down; antibody analyte.
The target is the same in assay [4]. In words: SPR (Biacore 3000), antibody down; PA analyte.

Substitutions are numbered along the chain they refer to.

T1 sequence (P13423 30-764 limits assumed): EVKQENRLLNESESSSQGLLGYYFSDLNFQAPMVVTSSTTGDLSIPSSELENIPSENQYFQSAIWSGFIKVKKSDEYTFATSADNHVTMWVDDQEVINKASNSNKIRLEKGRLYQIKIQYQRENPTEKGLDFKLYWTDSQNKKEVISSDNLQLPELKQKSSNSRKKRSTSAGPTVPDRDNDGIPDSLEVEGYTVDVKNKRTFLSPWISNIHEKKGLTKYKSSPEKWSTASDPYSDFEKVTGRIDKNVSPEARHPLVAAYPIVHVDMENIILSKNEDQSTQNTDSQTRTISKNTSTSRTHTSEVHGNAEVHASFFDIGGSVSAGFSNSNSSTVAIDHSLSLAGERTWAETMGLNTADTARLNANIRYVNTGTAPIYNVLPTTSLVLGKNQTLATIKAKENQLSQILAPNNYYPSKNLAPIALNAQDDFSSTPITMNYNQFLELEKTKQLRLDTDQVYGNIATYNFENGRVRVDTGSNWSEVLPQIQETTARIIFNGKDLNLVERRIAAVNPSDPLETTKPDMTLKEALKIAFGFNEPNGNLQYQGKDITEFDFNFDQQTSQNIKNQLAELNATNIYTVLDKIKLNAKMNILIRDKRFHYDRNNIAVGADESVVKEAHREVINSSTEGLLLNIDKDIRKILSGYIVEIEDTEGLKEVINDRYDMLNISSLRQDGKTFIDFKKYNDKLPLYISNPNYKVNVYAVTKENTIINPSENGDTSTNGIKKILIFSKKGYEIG

B1: anti-PA 14B7 scFv (scFv)
scFv: DIQMTQTTSSLSASLGDRVTISCRASQDIRNYLNWYQQKPDGTVKLLIYYTSRLQSGVPSRFSGSGSGTDYSLTISNQEQEDIGTYFCQQGNTLPWTFGGGTKLEIKRGGGGSGGGGSGGGGSGGGGSEVQLQQSGPELVKPGASVKISCKDSGYAFSSSWMNWVKQRPGQGLEWIGRIYPGDGDTNYNGKFKGKATLTADKSSSTAYMQLSSLTSVDSAVYFCARSGLLRYAMDYWGQGTSVTVSS
For B1, in assay [1], the Kd – broadly, the free concentration of one partner at which half of the binding sites on the other are occupied at equilibrium, for simple one-to-one binding – amounted to 4.3 nM; the koff (as a rule, the first-order rate constant of dissociation) is 0.003 s⁻¹; the kon (in general, a measure of how fast the partners come together) worked out at 710000 M⁻¹ s⁻¹.

B2: M18 scAb (scFv)
scFv: B1 scFv with I21V, L46F, S56P, S76N, Q78L, L94P, S158N, T186S, K193E, T197I
In assay [1], B2 showed a Kd of 0.035 nM, a koff of 4.2e-05 s⁻¹ and a kon of 1.2e+06 M⁻¹ s⁻¹. In assay [2], the Kd stood at 0.054 nM and the “fold improvement of KD over the whole antibody to PA” value was around 5 fold. In assay [3], this molecule gave a Kd of 0.044 nM and a kon of 1.4e+06 M⁻¹ s⁻¹. Moreover, in assay [4], the affinity, expressed as Kd, was 0.095 nM and the kon amounted to 930000 M⁻¹ s⁻¹.

B3: M18 scAb-PEG 40 kDa (scFv)
scFv: B1 scFv with I21V, L46F, S56P, S76N, Q78L, L94P, S158N, T186S, K193E, T197I
Regarding B3, in assay [3], binding was characterised by a dissociation constant (Kd) of 2.6 nM and the kon was found to be 27000 M⁻¹ s⁻¹. In assay [4], the Kd is 0.043 nM and the kon amounted to 870000 M⁻¹ s⁻¹.

B4: M18 scAb-PEG 20 kDa (scFv)
scFv: B1 scFv with I21V, L46F, S56P, S76N, Q78L, L94P, S158N, T186S, K193E, T197I
In assay [3], B4 displayed a Kd of 0.69 nM and a kon of 100000 M⁻¹ s⁻¹. For the same molecule, in assay [4], binding was put at a Kd of 0.025 nM and the association rate constant (kon) was determined as 780000 M⁻¹ s⁻¹.
